3 substances from PMC6158747 can be followed below.

This series concerns CytR DNA-binding domain. As to the kind of experiment: fluorescence anisotropy. The note with it: Stopped-flow kinetics: 50 mM sodium phosphate, 30 mM NaCl, 1 mM EDTA, pH 6.0, 278 K, 300 nM Alexa-532 udp half-site, equilibrium isotherms at 293 K (buffer not …). On the technique in general: In fluorescence polarisation assays a small probe gives low polarisation when free and higher when bound to something large.

For the setting “293 K, first of two overlapping titration profiles (K1/2,1)”, PurR binding site (PurFO) registered a K half of 0.4 µM.
As to random DNA (Poly-AC DNA), the K half (293 K, similar affinity to udp half-site) amounted to 10 µM.
On to udp half-site (Udp-Half), for which the K half turned out to be 10 µM.
